Measurements from the supplement of paper PMC12042874.
± gives the uncertainty stated by the source.

Assay: amyloid nucleation score (Sup35N fusion, yeast selection) (log enrichment); library NNK1; higher = more nucleation; inactive = no reads after selection
Summary of the method: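 On medium lacking adenine and uracil, psi-negative yeast expressing peptides of 20 random codons fused to Sup35N were grown 7 days at 30°C after a 24-hour induction with 100 μM copper sulfate. Illumina sequencing of input and output plasmid inserts gave the reads, and sequences under 100 input reads were excluded. The nucleation score is the DiMSum log enrichment of output over input reads, centred on the mode score of non-aggregating sequences.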

DRFQNYFCILCFPFYANVCE
amyloid nucleation score: 2.71 ± 0.12

AVFLMFRYASFTYWM
amyloid nucleation score: 0.444 ± 1.2

VQRELFLVLHHTSVGRGSAP
amyloid nucleation score: 1.08 ± 0.24

TVSLGEQFLFTIAVGYGDSD
amyloid nucleation score: inactive

MMLSLISVQV
amyloid nucleation score: 0.379 ± 0.68

YEYQEKFSFYIEVLGKDSLS
amyloid nucleation score: -0.864 ± 0.41

ILYNLGTWFRLC
amyloid nucleation score: -0.496 ± 0.61

KVFYVLLHGSILSNRGMWQT
amyloid nucleation score: -0.725 ± 1.2

LVPWGSFFALA
amyloid nucleation score: -0.146 ± 0.97

DTSGSYMLSYLWGYWQLRSA
amyloid nucleation score: 0.073 ± 0.56

SKVCE
amyloid nucleation score: 0.085 ± 0.66

AIKCHL
amyloid nucleation score: -0.721 ± 1.9

TFWTLVQQATVKHMLYGTFL
amyloid nucleation score: -0.663 ± 1.9

SSVSPIHHRLYKTETPMWLT
amyloid nucleation score: -0.369 ± 0.58

NWSHGLLTPNVCW
amyloid nucleation score: -0.573 ± 1.4

NFELEHLEICSDVCFGCAAE
amyloid nucleation score: 1.12 ± 0.65

ITMGTGCSAGEWFMVYMMC
amyloid nucleation score: 2.15 ± 0.2

DIRVIVRIYQSIINL
amyloid nucleation score: 3.15 ± 0.09

VNASELEYKFTLLVQWMIRR
amyloid nucleation score: 1.31 ± 0.32

FESRRVKNGID
amyloid nucleation score: inactive

PVKGGVMGF
amyloid nucleation score: -0.35 ± 1.4

VPCNYKGSLSGRRYLSAKQS
amyloid nucleation score: 0.011 ± 0.34

VWLEYECKVLVLHYCFCRVR
amyloid nucleation score: 0.72 ± 0.61

GIETRMDWEV
amyloid nucleation score: 1.67 ± 0.52

FMDTAMTSFGSLSW
amyloid nucleation score: -0.317 ± 0.55

RRSESCMFYVMWYGNRYLEG
amyloid nucleation score: 0.638 ± 0.18

MVLTFAV
amyloid nucleation score: -1.36 ± 2.4

WSTNNCCYA
amyloid nucleation score: -1.38 ± 2.1

FNVLCPRRQNLSGVELD
amyloid nucleation score: -0.02 ± 0.45

EIIET
amyloid nucleation score: 0.534 ± 0.34

STNECSLLMGDSCGHHRSHC
amyloid nucleation score: -0.171 ± 0.9

SKMDGVATRYRYNAMRADVK
amyloid nucleation score: 0.181 ± 0.2

PMVRMQYDPYIKTMCVVWMR
amyloid nucleation score: -0.195 ± 1.2

MNKQAFNGRM
amyloid nucleation score: inactive

SRTTAVSYLGNGFVI
amyloid nucleation score: -0.573 ± 0.42

HSNCVDSRCETARTS
amyloid nucleation score: 1.47 ± 0.47

WVIVRYRNFCVCGRPSKDIG
amyloid nucleation score: 0.263 ± 0.32

SVCVCLTIGCDFSIESVRCN
amyloid nucleation score: 2.64 ± 0.32

ACTGARCVRDQ
amyloid nucleation score: 0.452 ± 0.45

LSSCFPIDRSEDSDVYGYFK
amyloid nucleation score: -0.252 ± 0.49

QTNKLEGVANSGKIITNKSG
amyloid nucleation score: 0.021 ± 0.97

GVLSKSSKLFNCKDYCHSKY
amyloid nucleation score: 1.13 ± 0.35

PYKTWRYSSRIFYWAALPMV
amyloid nucleation score: -0.842 ± 1.7

SLLCLCYV
amyloid nucleation score: 7.599 ± 0.059

NCSLILTTKRNRWYLQRLRF
amyloid nucleation score: 0.467 ± 0.33

VVWEQSIDVILGYMGLGPD
amyloid nucleation score: 0.381 ± 0.49

RRYHGGDWSLLVNQLN
amyloid nucleation score: 0.374 ± 0.23

IKLFARGGI
amyloid nucleation score: 0.39 ± 0.59

NFKNKIMGALS
amyloid nucleation score: -0.548 ± 2.1

SNSFRLGGSNNYPMSSAPGL
amyloid nucleation score: -1.74 ± 2.4

PHQPRILM
amyloid nucleation score: -0.387 ± 0.36

PGSWVTESLMTYRLCNLSNV
amyloid nucleation score: 0.455 ± 0.35

FFAFYDVHPLHLGDTTLGGW
amyloid nucleation score: 3.29 ± 0.14

ISICDVYLWVHMRYSL
amyloid nucleation score: 0.584 ± 0.21

FLGLLLCCLVRAPLPFGMRA
amyloid nucleation score: -0.459 ± 0.56

YKGLFR
amyloid nucleation score: 0.065 ± 0.45

ILEFDDKKVLNLVEGKLLGA
amyloid nucleation score: -0.383 ± 1.7

IPVILSSSNYSDSKPGL
amyloid nucleation score: 0.964 ± 0.6

LNFCSVRVMEEISMVWCMVF
amyloid nucleation score: 4.24 ± 0.11

YELRFMRVEQGSQYREVS
amyloid nucleation score: -0.159 ± 0.37

QVRGSASYSVHWINELFFKQ
amyloid nucleation score: 1.64 ± 0.32

VSVQMAGIF
amyloid nucleation score: -0.863 ± 0.54

AHFHPLEVRFTIHDFLADNL
amyloid nucleation score: -0.215 ± 0.5

EFSVFYMGFGVM
amyloid nucleation score: inactive

HYIFIRECYCIYLSIAFSQT
amyloid nucleation score: 0.33 ± 0.36

YDTTTHMRISMVGSSQPVCL
amyloid nucleation score: -0.327 ± 0.3

NLTSVPYMPLECDYHARSYF
amyloid nucleation score: -1.55 ± 1.2

MEISLVINWSIIITKVCVCV
amyloid nucleation score: 0.497 ± 0.33

VCNWVSLGVALHRALEQLGI
amyloid nucleation score: -1.32 ± 0.92

CCHAYRFGWNASVLRCGICL
amyloid nucleation score: -0.444 ± 1.9

AINSSFWSVGLILEIDMYSY
amyloid nucleation score: -0.148 ± 0.45

RNDHSRDHPFLDISWVCLGQ
amyloid nucleation score: 0.58 ± 1.2

ENYKVGACVYLPWPFHENTG
amyloid nucleation score: -0.096 ± 0.56

NSRKSAGHPSLESGSLLCYA
amyloid nucleation score: -0.041 ± 0.5

HSFIYYWC
amyloid nucleation score: 7.49 ± 0.051

EYDLRSGEG
amyloid nucleation score: -0.332 ± 0.46

LCFMLEKWHLF
amyloid nucleation score: -0.566 ± 1.1

EKLRIVHQRRGRVHFNSGAI
amyloid nucleation score: -0.482 ± 0.41

MVAIRWYRMGLDDMNSGTVN
amyloid nucleation score: 0.094 ± 0.27

MSLDAFV
amyloid nucleation score: inactive

PVGYYILGMNGRVMNWSQRQ
amyloid nucleation score: 1.73 ± 0.52

SLVNFVAMGARDRIPCVYKR
amyloid nucleation score: -1.03 ± 2.4

LHLFGQ
amyloid nucleation score: 0.067 ± 0.38

TIHFRSDQHLSNIWRGFWQY
amyloid nucleation score: inactive

RSWPHGCVAEQNTCSPHKLA
amyloid nucleation score: 1.48 ± 0.55

NYTTSMNPLHFVACK
amyloid nucleation score: inactive

NWSFEWWTSIAMEQ
amyloid nucleation score: -0.222 ± 0.42

DNSLFLYQRAR
amyloid nucleation score: -0.449 ± 0.82

ILELYYYASRFLN
amyloid nucleation score: 0.45 ± 0.57

EVHRFRVKKEGGDQ
amyloid nucleation score: 0.869 ± 0.57

YLFQAGQDTRLLIC
amyloid nucleation score: 0.236 ± 0.63

WCSDKSVGRAKDDDSGTRRC
amyloid nucleation score: -0.018 ± 0.46

VYSMVFLMPCNRHDSFGRYS
amyloid nucleation score: 6.578 ± 0.056

MMSSFDVWDS
amyloid nucleation score: -0.077 ± 0.73

VYPFD
amyloid nucleation score: -1.32 ± 1.4

AFNGVSNLEWL
amyloid nucleation score: -0.18 ± 1.7

FEERFMFYTNIDNLLYPLSA
amyloid nucleation score: 0.848 ± 0.42

AFLCESFSLVWYWLLWEWRW
amyloid nucleation score: -0.126 ± 0.77

FLYWSHSYFLITWFRCVLEI
amyloid nucleation score: inactive

LVGRSFSCEPRLYTFCEFCG
amyloid nucleation score: 2.61 ± 0.18

SNSRGYSWRDTGTNLRGYPE
amyloid nucleation score: -0.238 ± 1.5

LAFTNRVVVWESWSAMAVRW
amyloid nucleation score: -0.173 ± 0.66

PLCPSGRNYVS
amyloid nucleation score: -0.159 ± 0.25

VSTNSDSLLGNCRKNPVHPS
amyloid nucleation score: 1.03 ± 0.79

DVPGSRQVLVYFFNQIFDEM
amyloid nucleation score: 5.9 ± 0.088

GSVDQSMC
amyloid nucleation score: 0.968 ± 0.45

CCNGRLIIGNSNGNESYLSK
amyloid nucleation score: -0.384 ± 0.37

LASSIFASFRTFVQPSVSGY
amyloid nucleation score: -0.146 ± 0.48

LMAYNLGRPFAPFNCNVMGR
amyloid nucleation score: -0.268 ± 0.98

NRNERVTHSSQFSIGFEERM
amyloid nucleation score: 1.14 ± 0.57

VGIGLSFQTEQSVCTDLLYS
amyloid nucleation score: -0.203 ± 0.69

RNWLLDTNSLQVMSPYIFEV
amyloid nucleation score: -0.41 ± 0.74

MRTPGCVMF
amyloid nucleation score: -0.44 ± 0.93

YQVMLRSCLYLLYFSMFNCL
amyloid nucleation score: 1.27 ± 0.79

DNLSIWGL
amyloid nucleation score: -0.629 ± 0.89

TPLFRGFIMLQPRLRCDKFA
amyloid nucleation score: 0.013 ± 0.31

KPRVRAAGLCSLQFWALIAV
amyloid nucleation score: -0.275 ± 0.72

YSEWRSSHNRFMSRPLSTPR
amyloid nucleation score: -0.992 ± 0.55

CLPLACLKTLSNDSVWLDCA
amyloid nucleation score: 0.402 ± 0.35

PHFLGQFYSDVPCDCGLCWY
amyloid nucleation score: 0.193 ± 0.9

LSYMSLFW
amyloid nucleation score: 1.94 ± 0.16

PQKHSFAWHRMVATLALSYR
amyloid nucleation score: 1.17 ± 0.93

RGSTLSGVYCAENRASGFDS
amyloid nucleation score: 0.93 ± 0.33

SVRVPEHGRRWVSKGVG
amyloid nucleation score: -0.785 ± 1.1

QKMYDILVIDLYESGDRPFV
amyloid nucleation score: 0.532 ± 0.29

MQWWVGYAIITEN
amyloid nucleation score: -0.119 ± 0.56

YPLSLRYQCI
amyloid nucleation score: 0.2 ± 0.25

SMLAFQMITKQRQHSFWMWT
amyloid nucleation score: -0.766 ± 0.39

SLIGYVIKW
amyloid nucleation score: -0.095 ± 0.63

RINVYII
amyloid nucleation score: 3.25 ± 0.19

IYEKRGD
amyloid nucleation score: 1.15 ± 0.98

NRQKFSDVSYCTMTMFRVAH
amyloid nucleation score: -0.61 ± 1.7

VWACSPGDVAFMP
amyloid nucleation score: 0.762 ± 0.97

LHRSQMIFMCLSVTYSAK
amyloid nucleation score: -0.209 ± 0.47

YTANYGILVFAVC
amyloid nucleation score: -0.702 ± 1.4

NYIGYLYLFDFCEHDLCRCF
amyloid nucleation score: 6.62 ± 0.074

CCVGRALCHNVVS
amyloid nucleation score: 0.594 ± 0.55

RGYSSTPRFVNIACYMVQSL
amyloid nucleation score: 2.45 ± 0.26

GLVSSSLGGYVDADSYFECD
amyloid nucleation score: inactive

LHMTFFTPVDLVVQRTDFRL
amyloid nucleation score: 0.971 ± 0.52

CSAKNLYVTTQFSLVLFVGS
amyloid nucleation score: 6.422 ± 0.052

VWYTRGRRHRGTTYMSNRLW
amyloid nucleation score: -0.28 ± 0.31

CKVQLSQDRAVECGVNHGVY
amyloid nucleation score: -0.01 ± 0.44

SKTRVLM
amyloid nucleation score: -0.374 ± 0.41

DLSWGSRHY
amyloid nucleation score: -0.899 ± 0.42

LTFTLTDPDSHDANDKWPLH
amyloid nucleation score: -0.208 ± 0.66

AIQYILEQLEQSRRWGISVH
amyloid nucleation score: inactive

DRFLETICSEGSRPGSGN
amyloid nucleation score: 0.917 ± 0.21

ECYQKTGVCRK
amyloid nucleation score: -0.447 ± 0.89

LDGGIIRRILVIVKCWGRCC
amyloid nucleation score: 0.108 ± 0.2

NSIFLLSYLKLIFAVYA
amyloid nucleation score: inactive

GTGTAPGINPWLLDSFPAPV
amyloid nucleation score: 0.378 ± 0.28

SNQRKYGAPVKSLWEIFKSE
amyloid nucleation score: 1.34 ± 0.93

RSDYVNDGEYWAFRDRMMNM
amyloid nucleation score: -0.126 ± 0.35

YVYDSVAVHGGKTLEGEGYG
amyloid nucleation score: 0.035 ± 0.38

LLVMVVMGCCA
amyloid nucleation score: 0.163 ± 0.83

TKCHIQLYIALASVAGGSGF
amyloid nucleation score: 2.36 ± 0.29

KFVYEGSGHQVILYVTLMGY
amyloid nucleation score: -1.59 ± 0.84

HPLQMISCNKHIQLANMQFR
amyloid nucleation score: 0.795 ± 0.37

ILPLLLMWFTYCDDV
amyloid nucleation score: 2.23 ± 0.6

NVMVTFFGCIRKWRSNWSQE
amyloid nucleation score: -0.016 ± 0.48

SNDKHKIRIYAGYFFVQRGC
amyloid nucleation score: 0.312 ± 0.37

RIISRCFVMDVWFERQYVTR
amyloid nucleation score: 1.96 ± 0.18

SIRTLQDNSTSSENFKVESV
amyloid nucleation score: 0.273 ± 0.64

QFYKGRNSFNERSSSNVLRY
amyloid nucleation score: inactive

KNAPLPRIVTIGKVLRYNRG
amyloid nucleation score: 0.422 ± 0.79

LTTYFHFMSMTEWAWRRRSK
amyloid nucleation score: 0.538 ± 0.29

SSNSGYSWSFTAWMGLGMRR
amyloid nucleation score: -0.037 ± 1.7

ISEMVEWSISPTLGETVTCM
amyloid nucleation score: 0.363 ± 0.49

VALAIIRPY
amyloid nucleation score: -0.431 ± 0.27

PKFCWAWSYALMGNKNLKSC
amyloid nucleation score: -0.715 ± 0.34

SMSSSWG
amyloid nucleation score: 0.19 ± 0.56
